Values quoted from earlier work, collected in US5780279A, “Method of selection of proteolytic cleavage sites by directed evolution and phagemid display” (Genentech, Inc., priority 1995, dated 1998).
Where no end group is shown, it is not given here.

Target: A64SAL subtilisin (Bacillus amyloliquefaciens, UniProt P00782, E263S/G276A/H171A/S131C/Y324L)
Conditions: Carter et al (1989)

A64SAL subtilisin, sequence (P00782 108-382 S131C/H171A/E263S/G276A/Y324L): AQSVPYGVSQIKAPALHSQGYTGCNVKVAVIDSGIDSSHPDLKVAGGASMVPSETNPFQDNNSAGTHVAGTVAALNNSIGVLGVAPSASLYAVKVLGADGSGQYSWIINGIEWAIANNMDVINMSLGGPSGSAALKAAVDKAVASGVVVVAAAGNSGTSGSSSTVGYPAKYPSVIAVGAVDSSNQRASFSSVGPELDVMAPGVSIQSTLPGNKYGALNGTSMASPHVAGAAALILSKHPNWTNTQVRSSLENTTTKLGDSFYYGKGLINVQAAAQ

## AAHYTRQ
  substrate quality for A64SAL subtilisin: good substrate
